The target of test [1] is T1, human PD-L1 extracellular domain recombinant protein hPD-L1-his (human, UniProt Q9NZQ7 19-238).
T1 construct: extracellular domain; Home-made; also called human PD-L1 recombinant protein; not shown: his label
Kind of test: BLI (ForteBIO QKe), hPD-L1-his captured on an anti-Penta-HIS sensor, antibody in solution. How it is done:
An experimental method included the following.
An equilibration buffer (1×PBS+0.02% Tween20) was used to dilute a home-made human PD-L1 extracellular domain recombinant protein hPD-L1-his carrying a his label, until a final concentration reached 5 μg/mL. […] The whole reaction was undergone at 25° C. and 1000 rpm.
(In general: BLI is a label-free optical method that tracks binding on a fibre tip over time.)

The target in test [2] is macaque PD-L1 on CHO-cynoPD-L1 stable cells (macaque, UniProt Q9NZQ7 19-290 (human entry)). In words: flow cytometry, antibody titration on CHO-cynoPD-L1 cells, MFI-APC. In general terms: In flow cytometry, cells or beads pass a laser one at a time.
The target of test [3] is T2, human PD-L1 full-length protein on CHO-hPD-L1 stable cells (human, UniProt Q9NZQ7 19-290).
T2 construct: also called membrane protein PD-L1
Kind of test: flow cytometry blocking assay: antibody titrated on CHO-hPD-L1 cells; blocked ligand recombinant human CD80-hFc.

Test [4] has as its target T3, human CD28 protein (Acrobiosystem), hCD28 hFc (human, UniProt P10747 19-152).
T3 construct: Bought; not shown: human Fc
In words: ELISA on coated hCD28 hFc. How it is done: (§1) Supernatant was discarded; a blocking solution (1×PBS+1% BSA) was added in 200 μL/well; and blocking was performed for 1 h at 37° C. […] Washing was performed for 3 times with the 1×PBS. HRP-labeled goat anti-mouse IgG (sigma A0168-1ML) was added in 100 μL/well; incubation was performed for 30 min at 37° C. in a standing manner; and after washing was performed for 3 times with the 1×PBS, a color reaction was performed.
(In general: In an ELISA, binding on a coated surface is turned into a signal by an enzyme label.)

Test [5] has as its target T4, human CTLA-4 protein (Acrobiosystem), hCTLA-4 hFc (human, UniProt P16410 37-162, limits assumed).
T4 construct: Bought; not shown: human Fc
In words: ELISA on coated hCTLA-4 hFc. As to the method:
as §1

Test [6] has as its target T5, human PD-L2 protein (Acrobiosystem), hPD-L2 hFc (human, UniProt Q9BQ51 20-219, limits assumed).
T5 construct: Bought; also called B7-DC; not shown: human Fc
T5 sequence (looked up): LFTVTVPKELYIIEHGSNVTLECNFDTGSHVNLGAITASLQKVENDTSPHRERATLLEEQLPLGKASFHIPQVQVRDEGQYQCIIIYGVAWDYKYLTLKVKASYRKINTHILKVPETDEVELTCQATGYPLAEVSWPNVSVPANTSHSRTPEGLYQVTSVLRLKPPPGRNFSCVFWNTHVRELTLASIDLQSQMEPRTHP
Kind of test: ELISA on coated hPD-L2 hFc. How it is done: as §1

The target of test [7] is T2, human PD-L1 full-length protein on …. Kind of test: flow cytometry blocking assay (method 1): antibody titrated on CHO-hPD-L1 cells; blocked ligand recombinant human PD-1-hFc. As to the method: […] The 1×FCM buffer was used to resuspend the CHO-hPD-L1 cells to the cell density of 2×10E6/mL, and the cells were evenly spread in the 96-well V base plate in 100 μL/well. […] After 250×g was taken to perform centrifugation for 5 min, supernatant was discarded in a sucking manner. After washing was performed for 2 times with the 1×FCM buffer, the cells were resuspended by adding the 1×PBS in 100 μL/well; and the flow cytometer (Beckman, CytoFLEX) was used for detection.

The target is the same in test [8]. Kind of test: flow cytometry, antibody titration on CHO-hPD-L1 cells, MFI-APC.
Test [9] addresses T6, recombinant human PD-L1 protein carrying a hFc label (human, UniProt Q9NZQ7 19-238).
T6 construct: Self-produced; also called hPD-L1 hFc; PD-L1-hFc; not shown: human Fc label
Kind of test: flow cytometry blocking assay (method 2): antibody titrated; binding of recombinant human PD-L1-hFc to PD-1 on CHO-hPD-1 cells is blocked. As to the method: The 1×FCM buffer was used to dilute the self-produced recombinant human PD-L1 protein carrying hFc, until the concentration reached 2 μg/mL. The 1×FCM buffer was used to resuspend the CHO-hPD-1 cells to the cell density of 2×10E6/mL, and the cells were evenly spread in the 96-well V base plate in 100 μL/well. […] After 250×g was taken to perform centrifugation for 5 min, supernatant was discarded in a sucking manner; after washing was performed once with the 1×FCM buffer, APC-labeled goat anti-mouse Fc fluorescent secondary antibodies (Biolegend) diluted by the 1×FCM buffer (dilution ratio being 1:500) were added in 100 μL/well; and incubation was performed on ice for 30 min. After 250×g was taken to perform centrifugation for 5 min, supernatant was discarded in a sucking manner. After washing was performed for 2 times with the 1×FCM buffer, the cells were resuspended by adding the 1×PBS in 100 μL/well; and the flow cytometer (Beckman, CytoFLEX) was used for detection.

In test [10] the target is T7, human CD86 protein (Acrobiosystem), hCD86 hFc (human, UniProt P42081 26-247, limits assumed).
T7 construct: Bought; also called B7-2; not shown: human Fc
T7 sequence (looked up): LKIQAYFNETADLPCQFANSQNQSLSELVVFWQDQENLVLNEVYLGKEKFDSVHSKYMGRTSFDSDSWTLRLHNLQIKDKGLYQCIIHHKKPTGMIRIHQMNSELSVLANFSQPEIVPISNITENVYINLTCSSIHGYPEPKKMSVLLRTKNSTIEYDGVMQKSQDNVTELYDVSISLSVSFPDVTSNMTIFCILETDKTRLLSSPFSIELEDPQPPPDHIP
In words: ELISA on coated hCD86 hFc. As to the method:
as §1

T2 sequence (Q9NZQ7 19-290 limits assumed): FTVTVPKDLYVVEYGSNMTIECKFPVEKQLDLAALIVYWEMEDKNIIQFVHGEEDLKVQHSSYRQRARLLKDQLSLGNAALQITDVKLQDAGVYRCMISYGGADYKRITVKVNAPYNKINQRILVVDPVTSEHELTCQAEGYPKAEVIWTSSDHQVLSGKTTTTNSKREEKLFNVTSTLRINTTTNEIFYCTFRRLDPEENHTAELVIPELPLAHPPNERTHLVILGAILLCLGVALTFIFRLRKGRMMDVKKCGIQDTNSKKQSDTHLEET
T6 sequence (Q9NZQ7 19-238): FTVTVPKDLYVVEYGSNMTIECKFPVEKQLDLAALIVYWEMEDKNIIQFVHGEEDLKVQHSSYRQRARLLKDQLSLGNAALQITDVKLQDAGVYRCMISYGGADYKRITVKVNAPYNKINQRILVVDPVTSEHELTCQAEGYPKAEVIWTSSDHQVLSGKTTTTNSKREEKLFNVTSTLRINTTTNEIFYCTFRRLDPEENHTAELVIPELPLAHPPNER
T1 sequence (Q9NZQ7 19-238): as above
T4 sequence (P16410 37-162 limits assumed): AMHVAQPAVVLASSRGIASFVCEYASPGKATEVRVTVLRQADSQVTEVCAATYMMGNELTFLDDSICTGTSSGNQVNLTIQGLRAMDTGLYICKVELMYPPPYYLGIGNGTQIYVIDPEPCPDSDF
Chain of macaque PD-L1 on CHO-cynoPD-L1 stable cells (Q9NZQ7 other isoform, or with tags, fused parts or gaps limits assumed): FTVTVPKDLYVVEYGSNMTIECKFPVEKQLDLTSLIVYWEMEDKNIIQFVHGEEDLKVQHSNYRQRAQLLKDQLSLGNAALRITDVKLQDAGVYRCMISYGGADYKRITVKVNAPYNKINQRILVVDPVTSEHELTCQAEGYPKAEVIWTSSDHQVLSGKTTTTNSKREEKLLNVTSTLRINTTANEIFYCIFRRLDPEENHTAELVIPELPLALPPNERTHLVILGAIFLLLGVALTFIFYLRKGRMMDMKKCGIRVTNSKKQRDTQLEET

B1: F016-21 (antibody, V domains shown)
VH: EVQLQQSGPELVKPGASVKMSCKASGYTFTDYVMHWVKQKPGQGLEWIGYINPYNDGTKFNEKFKGKATLTSDKSSSTAYMELSSLTSEDSAVYYCAKQTLDYWGQGTSVTVSS
VL: DIVLTQSPASLAVSLGQRATISCRASESVEYFGTTLMQWYQQRPGQPPKLLIYAASNVESGVPARFSGSGSGTDFSLNIHPVEEDDIAMYFCQQSRKVPYTFGGGTKLEIKR
notes: Mouse hybridoma monoclonal antibody purified from clone supernatant; also called anti-human PD-L1 antibody F016-21
Broadly, the Kd is the equilibrium constant for the complex coming apart. The term EC50 denotes the concentration that produces a half-maximal response. High values mean lower potency in that assay, low ones higher potency in that assay. The IC50 is the concentration needed to halve the response being measured. Consider B1, for which the Kd in test [1] worked out at 0.0566 nM. For the same molecule, the half-maximal effective concentration (EC50) in test [2] was 0.947 nM; in test [8], 0.502 nM. For the same molecule, the half-maximal inhibitory concentration (IC50) in test [3] worked out at 4.11 nM; in test [7], 5.2 nM; in test [9] it was 1.18 nM. The binding result in [4], in [5], in test [6] and in [10] was “no binding (tested: 10 µg/mL)” throughout.
